Literature values, collected in publication PMC7139808.

How the values were obtained:
[1] = molecular target: hemoglobin (Mus musculus) (UniProt P01942)
[2] = molecular target: hemoglobin (Homo sapiens) (UniProt P69905)
Chain of UniProt P69905 (P69905 2-142, chain 1 of 2): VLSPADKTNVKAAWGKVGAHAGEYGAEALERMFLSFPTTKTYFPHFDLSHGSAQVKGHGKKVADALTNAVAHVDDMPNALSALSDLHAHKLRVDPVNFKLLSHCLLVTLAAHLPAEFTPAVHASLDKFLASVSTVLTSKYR
Chain of UniProt P69905 (P68871 2-147, chain 2 of 2, further chain): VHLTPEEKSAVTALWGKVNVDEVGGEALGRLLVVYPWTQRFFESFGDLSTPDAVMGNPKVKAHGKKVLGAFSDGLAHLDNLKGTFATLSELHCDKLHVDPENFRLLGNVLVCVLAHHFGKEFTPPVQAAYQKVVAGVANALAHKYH

Chain of UniProt P01942 (P01942 2-142, chain 1 of 2): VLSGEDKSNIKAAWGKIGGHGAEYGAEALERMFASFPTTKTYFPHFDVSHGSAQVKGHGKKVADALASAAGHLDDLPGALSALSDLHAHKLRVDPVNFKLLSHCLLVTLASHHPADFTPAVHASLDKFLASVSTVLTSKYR
Chain of UniProt P01942 (P02088 2-147, chain 2 of 2, further chain): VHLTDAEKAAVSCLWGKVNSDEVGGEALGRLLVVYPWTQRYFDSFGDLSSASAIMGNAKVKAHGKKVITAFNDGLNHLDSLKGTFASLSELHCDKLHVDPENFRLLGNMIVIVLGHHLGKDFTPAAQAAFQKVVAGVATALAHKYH

IsdB (from UniProt A7X146)
Kd [1]: 980 nM | Kd [2]: 55 nM
